Source: article PMC7382501

Test system: FasR wild-type (FasRwt) (Mycobacterium tuberculosis H37Rv)
Test: EMSA

Question: With PfasMT promoter fragment (398 bp) as the substance, how does the Kd read?
Answer: 83 nM
